Read-outs that look alike come from different tables or passages of the source.
What was measured:
[1] = biological target: T1, SARS-CoV-2 spike protein on pseudovirus (SARS-CoV-2, UniProt P0DTC2 13-1273); assay: cell-based or functional assay
[2] = biological target: T2, SARS-CoV-2 spike protein on live SARS-CoV-2 virus (SARS-CoV-2, UniProt P0DTC2 13-1273); assay: cell-based or functional assay
[3] = biological target: T2, SARS-CoV-2 spike protein on live …; assay: cell-based or functional assay; remark: listed apart in the source
[4] = biological target: SARS-CoV-1 spike protein on HIV-based pseudovirus (SARS-CoV, UniProt P59594 14-1255); assay: cell-based or functional assay
[5] = biological target: T1, SARS-CoV-2 spike protein on pseudovirus; assay: cell-based or functional assay; remark: listed apart in the source
[6] = biological target: recombinant SARS-CoV-2 spike (S) protein trimer (SARS-CoV-2, UniProt P0DTC2 13-1213)

B1: Ab11 IgM (antibody)
VH: QVQLVQSGAEVKKPGSSVKVSCKASGGTFSSYAISWVRQAPGQGLEWMGGNIPIFGTANYAQKFQGRVTITADESTSTAYMELSSLRSEDTAVYYCARGVGYRGVIPLNWFDPWGQGTVVTVSS
VL: EIVMTQSPATLSVSPGERATLSCRASQSVSSDLAWYQHKPGQAPRLLIYGASTRATGIPVRFSGSGSGTEFTLTISSLQSEDFAVYYCQQYNNWPPFTFGGGTKVEIK
chain: not shown
IgM Fold Improvement Over IgG1 [1]: 86 fold
IgM IC50, SARS-CoV-2 pseudovirus neutralization [1]: 3.7 ng/mL
IgM Fold Improvement Over IgG1 [2]: > 870 fold
IgM IC50, SARS-CoV-2 live virus microneutralization [2]: 0.057 µg/mL

B2: Ab11 IgG (antibody, V domains shown)
VH: QVQLVQSGAEVKKPGSSVKVSCKASGGTFSSYAISWVRQAPGQGLEWMGGNIPIFGTANYAQKFQGRVTITADESTSTAYMELSSLRSEDTAVYYCARGVGYRGVIPLNWFDPWGQGTVVTVSS
VL: EIVMTQSPATLSVSPGERATLSCRASQSVSSDLAWYQHKPGQAPRLLIYGASTRATGIPVRFSGSGSGTEFTLTISSLQSEDFAVYYCQQYNNWPPFTFGGGTKVEIK
IgG IC50, SARS-CoV-2 pseudovirus neutralization [1]: 0.32 µg/mL
IgG IC50, SARS-CoV-2 live virus microneutralization [2]: > 50 µg/mL

B3: Ab7 IgM (antibody)
VH: EVQLVESGGGLVQPGGSLRLSCAVSGFTVSSNYMSWVRQAPGKGLEWVSVIYTGGGTYYADSVKGRFTISRDNSKNTLYLQMNTLRAEDTTVYYCARGDGSYYRAFDYWGQGTLVTVSS
VL: DIQMTQSPSSLSASVGDRVTITCRASQSISNYLNWYHQKPGKAPKLLIYAASSLQSGVPSRFSGSGSGTDFTLTISSLQPEDFATYYCQQSYSPPPTFGPGTKVEIK
chain: not shown
IgM Fold Improvement Over IgG1 [1]: 8.8 fold
IgM IC50, SARS-CoV-2 pseudovirus neutralization [1]: 0.042 ng/mL
IgM Fold Improvement Over IgG1 [3]: 19 fold
IgM IC50, SARS-CoV-2 live virus microneutralization [3]: 0.0016 µg/mL

B4: Ab7 IgG (antibody, V domains shown)
VH: EVQLVESGGGLVQPGGSLRLSCAVSGFTVSSNYMSWVRQAPGKGLEWVSVIYTGGGTYYADSVKGRFTISRDNSKNTLYLQMNTLRAEDTTVYYCARGDGSYYRAFDYWGQGTLVTVSS
VL: DIQMTQSPSSLSASVGDRVTITCRASQSISNYLNWYHQKPGKAPKLLIYAASSLQSGVPSRFSGSGSGTDFTLTISSLQPEDFATYYCQQSYSPPPTFGPGTKVEIK
IgG IC50, SARS-CoV-2 pseudovirus neutralization [1]: 0.00037 µg/mL
IgG IC50, SARS-CoV-2 live virus microneutralization [3]: 0.03 µg/mL

B5: Ab4 IgM (antibody)
VH: QVQLVESGGGVVQPGRSLRLSCAASGFTFSNYAMYWVRQAPGKGLEWVAVISYDGSNKYYADSVKGRFTISRDNSKNTLYLQMNSLRTEDTAVYYCASGSDYGDYLLVYWGQGTLVTVSS
VL: QSALTQPASVSGSPGQSITISCTGTSSDVGGYNYVSWYQQHPGKAPKLMIYDVSKRPSGVSNRFSGSKSGNTASLTISGLQSEDEADYYCNSLTSISTWVFGGGTKLTVL
chain: not shown
IgM Fold Improvement Over IgG1 [1]: 31 fold
IgM IC50, SARS-CoV-2 pseudovirus neutralization [1]: 0.058 ng/mL
IgM Fold Improvement Over IgG1 [3]: 59 fold
IgM IC50, SARS-CoV-2 live virus microneutralization [3]: 0.0031 µg/mL

B6: Ab12 IgM (antibody)
VH: not shown
VL: QSALTQPASVSGSPGQSITISCTGTSSDVGGYNYVSWYQQHPGKAPKLMIYDVSKRPSGVSNRFSGSKSGNTASLTISGLQAEDEGDYYCSSYTSSSTWVFGGGTKLTVL
chain: not shown
IgM Fold Improvement Over IgG1 [1]: 180 fold
IgM IC50, SARS-CoV-2 pseudovirus neutralization [1]: 0.42 ng/mL
IgM Fold Improvement Over IgG1 [2]: 330 fold
IgM IC50, SARS-CoV-2 live virus microneutralization [2]: 0.0081 µg/mL

B7: Ab4 IgG (antibody, V domains shown)
VH: QVQLVESGGGVVQPGRSLRLSCAASGFTFSNYAMYWVRQAPGKGLEWVAVISYDGSNKYYADSVKGRFTISRDNSKNTLYLQMNSLRTEDTAVYYCASGSDYGDYLLVYWGQGTLVTVSS
VL: QSALTQPASVSGSPGQSITISCTGTSSDVGGYNYVSWYQQHPGKAPKLMIYDVSKRPSGVSNRFSGSKSGNTASLTISGLQSEDEADYYCNSLTSISTWVFGGGTKLTVL
IgG IC50, SARS-CoV-2 pseudovirus neutralization [1]: 0.0018 µg/mL
IgG IC50, SARS-CoV-2 live virus microneutralization [3]: 0.18 µg/mL

B8: Ab12 IgG (antibody, V domains shown)
VH: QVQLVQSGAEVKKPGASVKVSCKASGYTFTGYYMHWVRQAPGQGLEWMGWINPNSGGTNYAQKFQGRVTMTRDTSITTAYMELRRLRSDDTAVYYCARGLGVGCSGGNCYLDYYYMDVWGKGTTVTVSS
VL: QSALTQPASVSGSPGQSITISCTGTSSDVGGYNYVSWYQQHPGKAPKLMIYDVSKRPSGVSNRFSGSKSGNTASLTISGLQAEDEGDYYCSSYTSSSTWVFGGGTKLTVL
IgG IC50, SARS-CoV-2 pseudovirus neutralization [1]: 0.077 µg/mL
IgG IC50, SARS-CoV-2 live virus microneutralization [2]: 2.7 µg/mL

B9: CR3022 IgA2m2 + J (antibody)
VH: QMQLVQSGTEVKKPGESLKISCKGSGYGFITYWIGWVRQMPGKGLEWMGIIYPGDSETRYSPSFQGQVTISADKSINTAYLQWSSLKASDTAIYYCAGGSGISTPMDVWGQGTTVTVSS
VL: not shown
chain: not shown
IC50, SARS-CoV-1 pseudovirus neutralization [4]: 2.3 µg/mL
IC50, SARS-CoV-2 pseudovirus neutralization [5]: > 100000 µg/mL

B10: CR3022 IgA1 + J (antibody)
VH: QMQLVQSGTEVKKPGESLKISCKGSGYGFITYWIGWVRQMPGKGLEWMGIIYPGDSETRYSPSFQGQVTISADKSINTAYLQWSSLKASDTAIYYCAGGSGISTPMDVWGQGTTVTVSS
VL: not shown
chain: not shown
IC50, SARS-CoV-1 pseudovirus neutralization [4]: 1.9 µg/mL
IC50, SARS-CoV-2 pseudovirus neutralization [5]: > 100000 µg/mL

B11: CR3022 IgM + J (antibody)
VH: QMQLVQSGTEVKKPGESLKISCKGSGYGFITYWIGWVRQMPGKGLEWMGIIYPGDSETRYSPSFQGQVTISADKSINTAYLQWSSLKASDTAIYYCAGGSGISTPMDVWGQGTTVTVSS
VL: not shown
chain: not shown
IC50, SARS-CoV-1 pseudovirus neutralization [4]: 0.47 µg/mL
IC50, SARS-CoV-2 pseudovirus neutralization [5]: > 100000 µg/mL

B12: Ab1 IgM (antibody)
VH: EVQLVESGGGLVQPGGSLRLSCAASGFTVSSNYMSWVRQAPGKGLEWVSVIYSGGSTFYADSVKGRFTISRDNSMNTLFLQMNSLRAEDTAVYYCARVLPMYGDYLDYWGQGTLVTVSS
VL: not shown
chain: not shown
IgM Fold Improvement Over IgG1 [1]: 67 fold
IgM IC50, SARS-CoV-2 pseudovirus neutralization [1]: 0.15 ng/mL
IgM Fold Improvement Over IgG1 [3]: 10 fold
IgM IC50, SARS-CoV-2 live virus microneutralization [3]: 0.013 µg/mL

B13: Ab1 IgG (antibody, V domains shown)
VH: EVQLVESGGGLVQPGGSLRLSCAASGFTVSSNYMSWVRQAPGKGLEWVSVIYSGGSTFYADSVKGRFTISRDNSMNTLFLQMNSLRAEDTAVYYCARVLPMYGDYLDYWGQGTLVTVSS
VL: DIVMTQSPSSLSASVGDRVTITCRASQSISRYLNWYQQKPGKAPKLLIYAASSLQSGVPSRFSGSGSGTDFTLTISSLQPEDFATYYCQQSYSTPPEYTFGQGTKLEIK
IgG IC50, SARS-CoV-2 pseudovirus neutralization [1]: 0.01 µg/mL
IgG IC50, SARS-CoV-2 live virus microneutralization [3]: 0.13 µg/mL

B14: Ab8 IgM (antibody)
VH: EVQLVESGGGLIQPGGSLRLSCAASGFTVSRNYMNWVRQAPGKGLEWVSVIYSGGSTFYADSVKGRFTISRDNSKNTLYLQMNSLRAEDTAVYYCARDASSYGIDWGQGTLVTVSS
VL: not shown
chain: not shown
IgM IC50, SARS-CoV-2 pseudovirus neutralization [1]: 2.7 ng/mL
IgM Fold Improvement Over IgG1 [3]: 3.3 fold
IgM IC50, SARS-CoV-2 live virus microneutralization [3]: 0.028 µg/mL

B15: Ab8 IgG (antibody, V domains shown)
VH: EVQLVESGGGLIQPGGSLRLSCAASGFTVSRNYMNWVRQAPGKGLEWVSVIYSGGSTFYADSVKGRFTISRDNSKNTLYLQMNSLRAEDTAVYYCARDASSYGIDWGQGTLVTVSS
VL: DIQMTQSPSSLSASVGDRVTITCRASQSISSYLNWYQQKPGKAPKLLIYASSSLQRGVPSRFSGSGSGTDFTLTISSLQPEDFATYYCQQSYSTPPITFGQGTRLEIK
IgG IC50, SARS-CoV-2 pseudovirus neutralization [1]: 0.0019 µg/mL
IgG IC50, SARS-CoV-2 live virus microneutralization [3]: 0.093 µg/mL

B16: Ab3 IgM (antibody)
VH: QVQLVESGGGLVKPGGSLRLSCAASGFTFSDYYMSWIRQAPGKGLEWVSYITYSGSTIYYADSVKGRFTISRDNAKSSLYLQMNSLRAEDTAVYYCARDRGTTMVPFDYWGQGTLVTVSS
VL: DIQMTQSPSSLSASVGDRVTITCQASQDITNYLNWYQQKPGKAPKLLIYAASNLETGVPSRFSGSGSGTDFTFTISGLQPEDIATYYCQQYDNLPLTFGGGTKVEIK
chain: not shown
IgM IC50, SARS-CoV-2 pseudovirus neutralization [1]: 0.11 ng/mL
IgM IC50, SARS-CoV-2 live virus microneutralization [3]: 0.0038 µg/mL

B17: Ab3 IgG (antibody, V domains shown)
VH: QVQLVESGGGLVKPGGSLRLSCAASGFTFSDYYMSWIRQAPGKGLEWVSYITYSGSTIYYADSVKGRFTISRDNAKSSLYLQMNSLRAEDTAVYYCARDRGTTMVPFDYWGQGTLVTVSS
VL: DIQMTQSPSSLSASVGDRVTITCQASQDITNYLNWYQQKPGKAPKLLIYAASNLETGVPSRFSGSGSGTDFTFTISGLQPEDIATYYCQQYDNLPLTFGGGTKVEIK
IgG IC50, SARS-CoV-2 pseudovirus neutralization [1]: 0.00057 µg/mL

B18: Ab10 IgM (antibody)
VH: QITLKESGPTLVKPTQTLTLTCTFSGFSLSTSGVGVGWIRQPPGKALEWLALIYWDDDKRYSPSLKSRLTITKDTSKNQVVLTMTNMDPVDTATYYCAHHKIERIFDYWGQGTLVTVSS
VL: QSALAQPASVSGSPGQSITISCTGTSSDVGAYNYVSWYQQHPGKAPKLMIYDVSKRPSGVSNRFSGSKSGNTASLTISGLQAEDEADYYCSSYTTSSTVFGGGTKLTVL
chain: not shown
IgM Fold Improvement Over IgG1 [1]: 64 fold
IgM IC50, SARS-CoV-2 pseudovirus neutralization [1]: 0.092 ng/mL
EC50 (read off the curve) [6]: ~0.3 nM
IgM Fold Improvement Over IgG1 [2]: 390 fold
IgM IC50, SARS-CoV-2 live virus microneutralization [2]: 0.0012 µg/mL

B19: Ab10 IgG (antibody, V domains shown)
VH: QITLKESGPTLVKPTQTLTLTCTFSGFSLSTSGVGVGWIRQPPGKALEWLALIYWDDDKRYSPSLKSRLTITKDTSKNQVVLTMTNMDPVDTATYYCAHHKIERIFDYWGQGTLVTVSS
VL: QSALAQPASVSGSPGQSITISCTGTSSDVGAYNYVSWYQQHPGKAPKLMIYDVSKRPSGVSNRFSGSKSGNTASLTISGLQAEDEADYYCSSYTTSSTVFGGGTKLTVL
IgG IC50, SARS-CoV-2 pseudovirus neutralization [1]: 0.0059 µg/mL
EC50 (read off the curve) [6]: ~1 nM
IgG IC50, SARS-CoV-2 live virus microneutralization [2]: 0.47 µg/mL

Source: patent publication US20220403009A1 (IGM BIOSCIENCES, published 2022)
